The data set deals with the molecule itself. Put plainly: AFM of spontaneously formed aggregates (self-assembly).

B1: Ex1Q48 (other)
chain: MATLEKLMKAFESLKSFQQQQQQQQQQQQQQQQQQQQQQQQQQQQQQQQQQQQQQQQQQQQQQQQPPPPPPPPPPPQLPQPPPQAQPLLPQLQPPPPPPPPPPGPAAAEEPLHRP
notes: also called HTTEx1Q48; HTTex1Q48
For the protein B1, the binding result is on record as “binds”.

The values are drawn from patent US20210302442A1 (MAX DELBR CK CENTRUM F R MOLEKULARE MEDIZIN IN DER …, published 2021).
